Test results taken from PMC5932034.

Key:
[1] = target: cytoplasmic domain of Salmonella enterica serovar Typhimurium FlhA (FlhA^C) (UniProt P40729); assay: ITC; conditions: read off a plot
[2] = target: cytoplasmic domain of Salmonella enterica serovar Typhimurium FlhA (FlhA^C) (Salmonella enterica serovar Typhimurium ST313) (UniProt P40729); assay: ITC; FlhA^C and variants (0.1–0.2 mM) in the cell, FliT-FliD, FliS-FliC and variants (1.0–2.0 mM) in the syringe; 25 °C; 50 mM NaPi pH 6.8, 300 mM NaCl, 0.05% NaN3; one-site binding model
[3] = target: fused FliS−FliC^C construct (FliC^C fused to the C terminus of FliS) (UniProt P06179); assay: ITC; conditions: read off a plot

Row | Substance | ratio to parent [1] | Kd [2] | also measured
1 | fused FliT−FliD^C construct (FliD^C fused to the N terminus of FliT) (from UniProt P16328) R98D | 4.5 fold |  | 
2 | fused FliS−FliC^C construct (FliC^C fused to the C terminus of FliS) (from UniProt P06179 454-495) |  | 10 µM | 
3 | fused FliT−FliD^C construct (FliD^C fused to the N terminus of FliT) (from UniProt P16328) |  | 20 µM | 
4 | fused FliT−FliD^C construct (FliD^C fused to the N terminus of FliT) (from UniProt P16328) I93D | 3.3 fold |  | 
5 | cytoplasmic domain of Salmonella enterica serovar Typhimurium FlhA (FlhA^C) (from UniProt P40729) L476A |  |  | ratio to parent [3]: 8 fold
